Percent co-sedimented with MTs data for 2 substances are collected here from PMC7891324.

The target of this test is microtubules assembled from highly purified (MAP-free) porcine brain tubulin (porcine) (UniProt P02550). Kind of test: co-sedimentation; MTs assembled from 25 µM PC-purified (MAP-free) porcine brain tubulin in PEM (100 mM Pipes pH 6.8, 2 mM EGTA, 1 mM MgCl2) with 1 mM GTP, 10% glycerol, 1 mM DTT, 0.5% Triton X-100, 1 h 37°C; 2.5 µM recombinant plectin fragment added for 60 min; 45 000 g 30 min 37°C; supernatant and pellet by SDS-PAGE, Coomassie, densitometry.

Take “plectin fragment P2(2α3α)-8 (exons 2(2α3α)-8), untagged (domain or fragment)”: the percent co-sedimented with MTs is 36.5%. Take “plectin fragment P1c(2α3α)-8 (exons 1c(2α3α)-8), untagged (domain or fragment)”: the percent co-sedimented with MTs is 52%.
